The results in this text go back to patent publication US20210395379A1 (NUMAB THERAPEUTICS, published 2021).

Test [1] deals with T1, human CD137 expressed on Jurkat cells (human, UniProt Q07011 24-255). Briefly: Flow cytometry on CD137 expressing Jurkat cells, detection with APC-labelled goat anti-human IgG. Background: Flow cytometry measures light scatter and fluorescence of single cells or particles in a stream.
Test [2] concerns the target T2, Fc tagged human CD137 (R&D Systems, cat. 838-4B-100) (human, UniProt Q07011 24-186).
T2 construct: Bought Fc chimera; also called CD137 Fc chimera; human CD137 (tagged with Fc); not shown: Fc tag of the bought chimera
As to the kind of experiment: SPR (Biacore T200), Fc tagged human CD137 captured by anti-human Fc, scFv as analyte 0.19-45 nM. How it is done: (§1) In this experiment, Fc tagged human CD137 (R&D Systems, cat. 838-4B-100) was captured using the Human Antibody Capture kit from GE healthcare (cat. BR-1008-39). After each analyte injection cycle, the anti-human Fc-specific IgG was regenerated and new antigen was captured. The scFvs were injected as analyte using a dose response multi-cycle kinetic assay over the captured CD137 with concentrations of the analyte ranging from 0.19 to 45 nM (three-fold dilutions steps) diluted in running buffer. Association and dissociation time were set to 300 s and 720 s, respectively. The obtained sensorgrams were fitted using the 1:1 binding model.
(Surface plasmon resonance follows binding to a sensor surface in real time, without labels.)

Test [3] concerns the target T3, human Fc-tagged OX40 (Acro-Biosystems, cat. OX0-H5255) (human, UniProt P43489 29-216).
T3 construct: also called human OX40; not shown: Fc tag
T3 sequence (looked up): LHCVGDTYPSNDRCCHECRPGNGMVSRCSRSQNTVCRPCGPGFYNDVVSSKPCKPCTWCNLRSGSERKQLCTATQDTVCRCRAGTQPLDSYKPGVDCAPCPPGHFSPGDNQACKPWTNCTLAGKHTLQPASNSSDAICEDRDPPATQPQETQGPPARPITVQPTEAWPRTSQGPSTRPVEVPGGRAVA
As to the kind of experiment: SPR (Biacore T200), Fc-tagged OX40 captured by anti-human Fc, scFv as analyte. As to the method:
(§2) Binding of scFvs to human Fc-tagged CD40 (AcroBiosystems, cat. CD0-H5253) and human Fc-tagged OX40 (Acro-Biosystems, cat. OX0-H5255) was determined by SPR analysis on a T200 device (Biacore, GE Healthcare). In this experiment, Fc-tagged CD40 and OX40 were captured using the Human Antibody Capture kit from GE healthcare (cat. BR-1008-39). After each analyte injection cycle, the anti-human Fc-specific IgG was regenerated and new antigen was captured. The scFvs were injected as analyte using a high concentration of 180 nM of the analyte diluted in running buffer. Association and dissociation time were set to 300 s and 720 s, respectively. Obtained sensorgrams were fitted using the 1:1 binding model.

The target in test [4] is T1, human CD137 expressed on Jurkat cells. Briefly: flow cytometry on CD137 expressing Jurkat cells, detection with APC labelled protein L. How it is done:
50,000 CD137 expressing Jurkat cells (or as reference cell line Jurkat cells lacking CD137 expression) were distributed to round bottom non-tissue culture treated 96 well plates. Cells were washed twice with 100 μl PBS by centrifugation at 400×g for 5 min. […] After 1 h incubation at 4° C. on a nutating mixer, cells were washed 3 times with 100 μl staining buffer and centrifugation steps of 5 min at 400×g. […] Plates were incubated 1 h at 4° C. on a nutating mixer, then washed 3 times with 100 μl of staining buffer and resuspended in a final volume of 50 μl of staining buffer. Finally, APC signal of 20,000 events per well was analyzed by flow cytometry using a Novocyte flow cytometer system (ACEA Bioscience).

Test [5] has as its target T4, human Fc-tagged CD40 (AcroBiosystems, cat. CD0-H5253) (human, UniProt P25942 21-193).
T4 construct: also called human CD40; not shown: Fc tag
Briefly: SPR (Biacore T200), Fc-tagged CD40 captured by anti-human Fc, scFv as analyte. As to the method:
as §2

The target of test [6] is T5, cynomolgus monkey Fc-tagged CD137 (R&D Systems, cat. 9324-4B-100) (cynomolgus monkey, UniProt A9YYE7 24-186).
T5 construct: also called cynomolgus CD137; CD137-Fc chimeric protein (cynomolgus); not shown: the Fc tag (and any linker) of the bought chimera (R&D Systems, cat. 9324-4B-100)
As to the kind of experiment: SPR (Biacore T200), cynomolgus Fc-tagged CD137 captured by anti-human Fc, scFv as analyte. How it is done:
as §1
Cross-reactivity to cynomolgus CD137 was measured with cynomolgus monkey Fc-tagged CD137 (R&D Systems, cat. 9324-4B-100) in a similar assay as used to measure binding to human CD137.

Where a chain is given by its changes, count along the chain named.

T5 sequence (A9YYE7 entry or part of it limits assumed): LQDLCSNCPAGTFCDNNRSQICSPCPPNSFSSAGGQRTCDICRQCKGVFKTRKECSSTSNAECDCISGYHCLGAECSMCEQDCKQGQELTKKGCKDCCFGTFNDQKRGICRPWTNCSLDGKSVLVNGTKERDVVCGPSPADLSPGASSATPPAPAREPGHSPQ
T4 sequence (P25942 21-193 limits assumed): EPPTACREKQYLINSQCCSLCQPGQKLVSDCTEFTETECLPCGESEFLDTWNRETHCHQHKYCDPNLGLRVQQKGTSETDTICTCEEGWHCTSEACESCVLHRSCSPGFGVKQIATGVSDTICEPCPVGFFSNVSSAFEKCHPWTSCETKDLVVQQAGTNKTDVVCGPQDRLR

In turn, urelumab (antibody) showed an EC50 (read off the curve) in test [1] of 0.06 µg/mL.

B1: PRO1359 (38-27-A11 sc02) (scFv)
scFv: DIQMTQSPSSLSASVGDRVTITCQASQSISNRLAWYQQKPGKAPKLLIYSASTLASGVPSRFSGSGSGTDFTLTISSLQPEDFATYYCQSTYYGNDGNAFGTGTKVTVLGGGGGSGGGGSGGGGSGGGGSEVQLVESGGGLVQPGGSLRLSCAASGFSFSANYYPCWVRQAPGKGLEWIGCIYGGSSDITYDANWTKGRFTISRDNSKNTVYLQMNSLRAEDTAVYYCARSAWYSGWGGDLWGQGTLVTVSS
notes: VL-linker-VH, CDR graft, Vk1/VH3; also called anti-4-1BB scFv
On to B1, for which, in test [2], the koff worked out at 0.00281 s⁻¹ and the kon was found to be 866000 M⁻¹ s⁻¹. In addition, the binding result in test [3] is reported as “no binding (tested: 180 nM)”. In test [4], a half-maximal response (EC50) required 3.99 µg/mL and the “Maximum binding (relative to urelumab)” value was 18%. For the same molecule, the binding result in test [5] is reported as “no binding (tested: 180 nM)”. Moreover, in test [6], the Kd was 2.88 nM, the koff came out at 0.00267 s⁻¹ and the on-rate constant (kon) worked out at 927000 M⁻¹ s⁻¹.

B2: PRO1360 (38-27-A11 sc03) (scFv)
scFv: B1 scFv with I2F, M4L, A43P, V132S, Y227F, Q244P
notes: VL-linker-VH, full graft, Vk1/VH3
Consider B2, for which, in test [2], the koff amounted to 0.0003 s⁻¹ and the kon came to 1.28e+06 M⁻¹ s⁻¹. Further, the binding result in test [3] is “no binding (tested: 180 nM)”. In test [4], the EC50 was found to be 0.148 µg/mL and the “Maximum binding (relative to urelumab)” value turned out to be 29%. In addition, the binding result in test [5] is “no binding (tested: 180 nM)”. In test [6], this molecule showed an equilibrium dissociation constant (Kd) of 0.24 nM, an off-rate constant (koff) of 0.000252 s⁻¹ and a kon of 1.05e+06 M⁻¹ s⁻¹.

By EC50 (read off the curve) is commonly meant the concentration that produces a half-maximal response. Broadly, the koff is a measure of how fast the partners let go of each other. By kon is commonly meant the second-order rate constant of association. What is called EC50 is the concentration needed to bring the measured effect to its halfway point. A word on the Kd: it is a measure of binding affinity in units of concentration.
